Experimental data taken from article doi:10.1101/2022.02.16.480668 (bioRxiv, 2022).

Target: the molecule itself
Assay: negative-stain electron microscopy of filaments on vesicles

B1: Vps60 (natural protein)
chain: MNRIFGYGNKKSHDQLLQESNQSMNQAQQSLSNRISQLDTQIAQLNFQLQNIQKNLQRSNNKQPSLRKQALKILNKRKQLENMKDSLDSQSWSMTQAQLTNDNLQNTMITINALKQTNNAMKAQYGKINIDKLQDMQDEMLDLIEQGDELQEVLAMNNNSGELDDISDAELDAELDALAQEDFTLPTSENSLGNDMPSYLLGANAPPAFIDEEPNLDTEDKNKALESAQ
modifications: Atto-565 (TFP ester labelling) where fluorescence was read; labeled protein mixed 1:1 with unlabeled protein
binding result: binds
